Reference: PMC8481183, “Resonance assignment of coiled-coil 3 (CC3) domain of human STIM1” (Biomolecular Nmr Assignments, 2021)

Target: the molecule itself
Experiment: circular dichroism; STIM1 CC3 alone in 20 mM Bis-Tris, pH 6.0, without TFE, 20 °C; ratio [CD]222/[CD]208 as coiled-coil index

B1: human STIM1 coiled-coil3 (CC3) fragment (amino acids 388–430) (domain or fragment, UniProt Q13586 388-430, looked up)
chain: NTLFGTFHVAHSSSLDDVDHKILTAKQALSEVTAALRERLHRW
notes: Cloned in pGEX 4T-1 (GST tag with thrombin cleavage site); The NMR sample was 15N/13C labelled; Purification follows Rathner et al. 2018; also called STIM1 CC3; CC3 domain; source: E. coli BL21, purified (protocol of Rathner et al. 2018, slightly modified)
binding result: binds
